Experimental data as given in IntAct's records for PubMed 35512704.

B1: Speckle-type POZ protein (Homo sapiens), O43791 (parent)
chain: MSRVPSPPPPAEMSSGPVAESWCYTQIKVVKFSYMWTINNFSFCREEMGEVIKSSTFSSGANDKLKWCLRVNPKGLDEESKDYLSLYLLLVSCPKSEVRAKFKFSILNAKGEETKAMESQRAYRFVQGKDWGFKKFIRRDFLLDEANGLLPDDKLTLFCEVSVVQDSVNISGQNTMNMVKVPECRLADELGGLWENSRFTDCCLCVAGQEFQAHKAILAARSPVFSAMFEHEMEESKKNRVEINDVEPEVFKEMMCFIYTGKAPNLDKMADDLLAAADKYALERLKVMCEDALCSNLSVENAAEILILADLHSADQLKTQAVDFINYHASDVLETSGWKSMVVSHPHLVAEAYRSLASAQCPFLGPPRKRLKQS
partner: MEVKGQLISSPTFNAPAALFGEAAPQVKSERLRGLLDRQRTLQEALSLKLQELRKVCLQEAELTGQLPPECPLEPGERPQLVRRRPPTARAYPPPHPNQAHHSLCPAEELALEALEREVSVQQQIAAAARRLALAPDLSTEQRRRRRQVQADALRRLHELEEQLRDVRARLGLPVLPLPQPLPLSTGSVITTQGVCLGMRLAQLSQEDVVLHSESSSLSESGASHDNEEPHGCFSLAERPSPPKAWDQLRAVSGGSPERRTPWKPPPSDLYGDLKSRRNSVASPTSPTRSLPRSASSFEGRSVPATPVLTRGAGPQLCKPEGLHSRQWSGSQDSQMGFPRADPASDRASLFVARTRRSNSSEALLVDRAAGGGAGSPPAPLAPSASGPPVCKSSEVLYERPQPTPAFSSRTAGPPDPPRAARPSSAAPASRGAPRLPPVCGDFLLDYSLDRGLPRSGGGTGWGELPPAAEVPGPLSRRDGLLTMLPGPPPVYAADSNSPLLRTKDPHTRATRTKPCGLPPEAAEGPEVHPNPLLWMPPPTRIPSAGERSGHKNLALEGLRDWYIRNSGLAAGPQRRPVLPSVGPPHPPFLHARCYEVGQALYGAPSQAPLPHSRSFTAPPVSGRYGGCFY
B2: Speckle-type POZ protein (Homo sapiens), O43791 (parent)
chain: B1 chain
partner: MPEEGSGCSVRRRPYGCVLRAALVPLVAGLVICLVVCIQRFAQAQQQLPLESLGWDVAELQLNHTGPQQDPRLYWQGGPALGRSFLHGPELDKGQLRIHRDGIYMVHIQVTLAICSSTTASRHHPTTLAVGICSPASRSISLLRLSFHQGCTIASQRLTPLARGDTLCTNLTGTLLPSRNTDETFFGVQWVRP
B3: Speckle-type POZ protein (Homo sapiens), O43791 (parent)
chain: B1 chain
partner: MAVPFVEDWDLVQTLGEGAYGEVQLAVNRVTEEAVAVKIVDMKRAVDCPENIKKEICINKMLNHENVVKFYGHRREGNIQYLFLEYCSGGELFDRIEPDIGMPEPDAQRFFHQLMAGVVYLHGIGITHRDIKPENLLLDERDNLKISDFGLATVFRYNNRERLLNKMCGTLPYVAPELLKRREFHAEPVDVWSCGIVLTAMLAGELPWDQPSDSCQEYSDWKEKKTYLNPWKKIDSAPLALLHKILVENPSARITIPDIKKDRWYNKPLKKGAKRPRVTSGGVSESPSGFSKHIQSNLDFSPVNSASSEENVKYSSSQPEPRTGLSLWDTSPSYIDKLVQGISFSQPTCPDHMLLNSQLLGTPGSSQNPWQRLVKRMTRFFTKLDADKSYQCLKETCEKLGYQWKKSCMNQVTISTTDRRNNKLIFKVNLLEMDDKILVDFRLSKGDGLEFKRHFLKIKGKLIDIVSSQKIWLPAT
B4: Speckle-type POZ protein (Homo sapiens), O43791 (parent)
chain: B1 chain
partner: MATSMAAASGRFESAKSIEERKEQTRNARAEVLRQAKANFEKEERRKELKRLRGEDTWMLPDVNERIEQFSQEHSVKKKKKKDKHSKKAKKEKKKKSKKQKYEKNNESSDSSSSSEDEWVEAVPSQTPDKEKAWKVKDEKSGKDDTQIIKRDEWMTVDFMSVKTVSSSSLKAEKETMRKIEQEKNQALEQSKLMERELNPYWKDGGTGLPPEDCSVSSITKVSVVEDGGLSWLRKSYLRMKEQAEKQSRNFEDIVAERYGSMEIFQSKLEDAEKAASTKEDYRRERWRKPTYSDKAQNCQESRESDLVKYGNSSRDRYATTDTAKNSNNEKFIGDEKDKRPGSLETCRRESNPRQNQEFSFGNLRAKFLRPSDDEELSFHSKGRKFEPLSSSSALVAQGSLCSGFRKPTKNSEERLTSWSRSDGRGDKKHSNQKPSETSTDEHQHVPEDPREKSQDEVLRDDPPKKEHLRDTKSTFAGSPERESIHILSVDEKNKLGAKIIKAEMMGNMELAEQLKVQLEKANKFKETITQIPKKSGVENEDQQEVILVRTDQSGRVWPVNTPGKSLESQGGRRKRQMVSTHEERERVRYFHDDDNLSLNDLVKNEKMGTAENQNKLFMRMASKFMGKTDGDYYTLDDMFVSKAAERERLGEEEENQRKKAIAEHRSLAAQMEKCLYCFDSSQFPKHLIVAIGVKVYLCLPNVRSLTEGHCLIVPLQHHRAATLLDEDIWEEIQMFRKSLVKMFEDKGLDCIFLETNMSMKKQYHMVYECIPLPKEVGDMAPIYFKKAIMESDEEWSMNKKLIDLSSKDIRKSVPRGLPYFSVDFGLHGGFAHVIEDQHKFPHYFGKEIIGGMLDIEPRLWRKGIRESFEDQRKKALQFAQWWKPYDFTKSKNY
B5: Speckle-type POZ protein (Homo sapiens), O43791 (parent)
chain: B1 chain
partner: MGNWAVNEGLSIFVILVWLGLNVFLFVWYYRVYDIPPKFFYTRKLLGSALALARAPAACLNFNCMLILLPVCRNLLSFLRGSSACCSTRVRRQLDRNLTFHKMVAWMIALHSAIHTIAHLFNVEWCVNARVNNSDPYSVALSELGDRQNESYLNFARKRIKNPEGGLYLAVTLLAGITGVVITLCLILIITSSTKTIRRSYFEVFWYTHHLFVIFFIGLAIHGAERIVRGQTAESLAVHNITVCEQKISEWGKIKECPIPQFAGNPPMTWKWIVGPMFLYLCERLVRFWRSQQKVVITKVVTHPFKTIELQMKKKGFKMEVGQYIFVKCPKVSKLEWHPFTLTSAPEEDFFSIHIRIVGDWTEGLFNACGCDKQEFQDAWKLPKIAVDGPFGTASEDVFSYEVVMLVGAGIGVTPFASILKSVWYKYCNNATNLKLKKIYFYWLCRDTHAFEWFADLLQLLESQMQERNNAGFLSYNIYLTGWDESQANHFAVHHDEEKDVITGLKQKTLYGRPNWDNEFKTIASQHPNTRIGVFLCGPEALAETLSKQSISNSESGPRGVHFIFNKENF
B6: Speckle-type POZ protein (Homo sapiens), O43791 (parent)
chain: B1 chain
partner: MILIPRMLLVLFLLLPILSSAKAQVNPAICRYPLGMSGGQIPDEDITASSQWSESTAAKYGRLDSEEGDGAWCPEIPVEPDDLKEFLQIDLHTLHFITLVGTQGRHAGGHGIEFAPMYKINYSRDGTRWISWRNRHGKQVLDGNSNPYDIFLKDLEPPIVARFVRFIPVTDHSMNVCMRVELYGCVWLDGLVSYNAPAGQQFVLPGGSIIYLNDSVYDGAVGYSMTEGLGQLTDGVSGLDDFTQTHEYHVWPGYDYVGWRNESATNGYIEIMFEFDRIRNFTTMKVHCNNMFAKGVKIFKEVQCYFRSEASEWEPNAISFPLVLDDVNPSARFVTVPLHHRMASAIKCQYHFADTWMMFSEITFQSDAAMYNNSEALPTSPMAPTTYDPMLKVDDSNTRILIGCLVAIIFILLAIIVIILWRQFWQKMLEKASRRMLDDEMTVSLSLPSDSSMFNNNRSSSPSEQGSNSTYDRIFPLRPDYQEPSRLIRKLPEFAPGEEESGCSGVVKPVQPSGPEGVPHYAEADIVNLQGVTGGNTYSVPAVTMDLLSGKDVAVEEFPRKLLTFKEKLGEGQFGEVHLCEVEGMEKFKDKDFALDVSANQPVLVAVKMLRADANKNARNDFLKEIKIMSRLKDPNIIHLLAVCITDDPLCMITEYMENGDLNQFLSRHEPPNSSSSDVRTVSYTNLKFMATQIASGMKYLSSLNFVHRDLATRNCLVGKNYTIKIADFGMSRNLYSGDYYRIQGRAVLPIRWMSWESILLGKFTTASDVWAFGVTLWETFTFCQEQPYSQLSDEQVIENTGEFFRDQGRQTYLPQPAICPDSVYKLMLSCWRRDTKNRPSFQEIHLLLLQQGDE

Variants of: B1
Conditions: with cc120_human CCDC120, Q96HB5

| Variant | effect of a mutation on the interaction |
| --- | --- |
| F102C | with no effect |

Variants of: B1
Conditions: with cc120_human CCDC120, Q96HB5
Remark: another data set of the same source

| Variant | effect of a mutation on the interaction |
| --- | --- |
| F133L | with no effect |

Variants of: B1
Conditions: with cc120_human CCDC120, Q96HB5
Remark: another data set of the same source

| Variant | effect of a mutation on the interaction |
| --- | --- |
| Y87C | with no effect |

Variants of: B1
Conditions: with cc120_human CCDC120, Q96HB5
Remark: another data set of the same source

| Variant | effect of a mutation on the interaction |
| --- | --- |
| F133V | with no effect |

Variants of: B2
Conditions: with cd70_human CD70, P32970

| Variant | effect of a mutation on the interaction |
| --- | --- |
| F102C | with no effect |

Variants of: B2
Conditions: with cd70_human CD70, P32970
Remark: another data set of the same source

| Variant | effect of a mutation on the interaction |
| --- | --- |
| F133L | with no effect |

Variants of: B2
Conditions: with cd70_human CD70, P32970
Remark: another data set of the same source

| Variant | effect of a mutation on the interaction |
| --- | --- |
| Y87C | with no effect |

Variants of: B2
Conditions: with cd70_human CD70, P32970
Remark: another data set of the same source

| Variant | effect of a mutation on the interaction |
| --- | --- |
| F133V | with no effect |

Variants of: B3
Conditions: with chk1_human CHEK1, O14757

| Variant | effect of a mutation on the interaction |
| --- | --- |
| F102C | with no effect |

Variants of: B3
Conditions: with chk1_human CHEK1, O14757
Remark: another data set of the same source

| Variant | effect of a mutation on the interaction |
| --- | --- |
| F133L | with no effect |

Variants of: B3
Conditions: with chk1_human CHEK1, O14757
Remark: another data set of the same source

| Variant | effect of a mutation on the interaction |
| --- | --- |
| Y87C | with no effect |

Variants of: B3
Conditions: with chk1_human CHEK1, O14757
Remark: another data set of the same source

| Variant | effect of a mutation on the interaction |
| --- | --- |
| F133V | with no effect |

Variants of: B4
Conditions: with CWF19L2, Q2TBE0

| Variant | effect of a mutation on the interaction |
| --- | --- |
| F102C | with no effect |

Variants of: B4
Conditions: with CWF19L2, Q2TBE0
Remark: another data set of the same source

| Variant | effect of a mutation on the interaction |
| --- | --- |
| F133L | with no effect |

Variants of: B4
Conditions: with CWF19L2, Q2TBE0
Remark: another data set of the same source

| Variant | effect of a mutation on the interaction |
| --- | --- |
| Y87C | with no effect |

Variants of: B4
Conditions: with CWF19L2, Q2TBE0
Remark: another data set of the same source

| Variant | effect of a mutation on the interaction |
| --- | --- |
| F133V | with no effect |

Variants of: B5
Conditions: with cy24b_human CYBB

| Variant | effect of a mutation on the interaction |
| --- | --- |
| F102C | with no effect |

Variants of: B5
Conditions: with cy24b_human CYBB
Remark: another data set of the same source

| Variant | effect of a mutation on the interaction |
| --- | --- |
| F133L | with no effect |

Variants of: B5
Conditions: with cy24b_human CYBB
Remark: another data set of the same source

| Variant | effect of a mutation on the interaction |
| --- | --- |
| Y87C | with no effect |

Variants of: B5
Conditions: with cy24b_human CYBB
Remark: another data set of the same source

| Variant | effect of a mutation on the interaction |
| --- | --- |
| F133V | with no effect |

Variants of: B6
Conditions: with ddr2_human DDR2, Q16832

| Variant | effect of a mutation on the interaction |
| --- | --- |
| F102C | with no effect |

Variants of: B6
Conditions: with ddr2_human DDR2, Q16832
Remark: another data set of the same source

| Variant | effect of a mutation on the interaction |
| --- | --- |
| F133L | with no effect |

Variants of: B6
Conditions: with ddr2_human DDR2, Q16832
Remark: another data set of the same source

| Variant | effect of a mutation on the interaction |
| --- | --- |
| Y87C | with no effect |
